The source of these data is publication PMC11552376, “Specific binding between Arabidopsis thaliana phytochrome-interacting factor 3 (AtPIF3) bHLH and G-box originated prior to embryophyte emergence” (BMC Plant Biology, 2024).

The target in one data set is T1, AtPIF3-bHLH H348A (Arabidopsis thaliana, UniProt O80536 340-397, H348A).
T1 sequence: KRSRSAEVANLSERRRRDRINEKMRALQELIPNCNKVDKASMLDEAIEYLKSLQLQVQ
The data set can be described thus: ITC; binding curve unsaturated; ITC: 30 mM HEPES, 125 mM NaCl, pH 7.5, 25 C, 400 uM protein into 40 uM DNA; fEMSA: 30 mM HEPES, 500 mM NaCl, pH 7.4, on ice 30 min, 3 uM probe, 10% native gel in 0.5x TBE at 4 C. To be noted: protein: recombinant; tags: C-terminal His6; chain copies: 2; blunt. On the technique in general: In ITC the heat of successive injections is recorded.

The next data set concerns the target T2, AtPIF3-bHLH R356A (Arabidopsis thaliana, UniProt O80536 340-397, R356A).
T2 sequence: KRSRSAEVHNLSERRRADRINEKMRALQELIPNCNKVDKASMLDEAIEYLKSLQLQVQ
The data set can be described thus: ITC; error exceeds value; ITC: 30 mM HEPES, 125 mM NaCl, pH 7.5, 25 C, 400 uM protein into 40 uM DNA; fEMSA: 30 mM HEPES, 500 mM NaCl, pH 7.4, on ice 30 min, 3 uM probe, 10% native gel in 0.5x TBE at 4 C. Particulars: protein: recombinant; tags: C-terminal His6; chain copies: 2; blunt.

B1: G-box (PER2), ITC (dsDNA)
DNA 1: AGGAACACGTGACCC
DNA 2: GGGTCACGTGTTCCT
Turning to B1, the results for the dissociation constant (Kd) with AtPIF3-bHLH H348A and in the data set with AtPIF3-bHLH R356A were 3.39 ± 0.275 µM and 106 ± 112 µM, respectively.
